{
  "source": "patent US20230021388A1",
  "about": "(VELOSBIO, published 2023)",
  "binders": {"B1": {"name": "Ab1 Fab (Fab, V domains shown)", "VH": "QVQLQESGPGLVKPSQTLSLTCTVSGYAFTAYNIHWVRQAPGQGLEWMGSFDPYDGGSSYNQKFKDRLTISKDTSKNQVVLTMTNMDPVDTATYYCARGWYYFDYWGHGTLVTVSS", "VL": "DIVMTQTPLSLPVTPGEPASISCRASKSISKYLAWYQQKPGQAPRLLIYSGSTLQSGIPPRFSGSGYGTDFTLTINNIESEDAAYYFCQQHDESPYTFGEGTKVEIK", "notes": "Soluble Fab from an M13 phage vector in E. coli: VL + kappa constant region, VH + human CH1 + His and HA tags; also called WT; parental Fab"}, "B2": {"name": "Ab1 Fab variant H3 W110Y (Fab, V domains shown)", "VH": "B1 VH with W100Y", "VL": "B1 VL", "notes": "Fab"}, "B3": {"name": "Ab1 Fab variant H3 W110H (Fab, V domains shown)", "VH": "B1 VH with W100H", "VL": "B1 VL", "notes": "Fab"}, "B4": {"name": "Ab1 Fab variant H1 T32A (Fab, V domains shown)", "VH": "B1 VH with T30A", "VL": "B1 VL", "notes": "Fab"}, "B5": {"name": "Ab1 Fab variant H3 W110M (Fab, V domains shown)", "VH": "B1 VH with W100M", "VL": "B1 VL", "notes": "Fab"}, "B6": {"name": "H1 T32A Ab1 scFv (scFv)", "scFv": "QVQLQESGPGLVKPSQTLSLTCTVSGYAFAAYNIHWVRQAPGQGLEWMGSFDPYDGGSSYNQKFKDRLTISKDTSKNQVVLTMTNMDPVDTATYYCARGWYYFDYWGHGTLVTVSSGGGGSGGGGSGGGGSADIVMTQTPLSLPVTPGEPASISCRASKSISKYLAWYQQKPGQAPRLLIYSGSTLQSGIPPRFSGSGYGTDFTLTINNIESEDAAYYFCQQHDESPYTFGEGTKVEIKRDYKDDDDKGKPGSGKPGSGKPGSGKPGSYPYDVPDYAS", "notes": "VH - linker - VL with C-terminal FLAG and HA tags; also called scFv variant H1 T32A; Ab1.1"}, "B7": {"name": "H1 T32A/L2 T69R Ab1 scFv (scFv)", "scFv": "B6 scFv with T185R", "notes": "VH - linker - VL with C-terminal FLAG and HA tags; also called scFv variant H1 T32A+L2 T69R; Ab1.2"}, "B8": {"name": "Ab1 scFv (scFv)", "scFv": "B6 scFv with A30T", "notes": "the pelB leader is not part of the entry; also called parental Ab1 scFv; Ab1 parental construct"}},
  "key": {"[1]": {"molecular_target": "T1, recombinant human ROR1 extracellular domain (human, UniProt Q01973 30-406)", "T1 construct": "biotinylated for the filter lifts; also called huROR1-ECD; human ROR1-ECD", "T1 sequence (Q01973 30-406 limits assumed)": "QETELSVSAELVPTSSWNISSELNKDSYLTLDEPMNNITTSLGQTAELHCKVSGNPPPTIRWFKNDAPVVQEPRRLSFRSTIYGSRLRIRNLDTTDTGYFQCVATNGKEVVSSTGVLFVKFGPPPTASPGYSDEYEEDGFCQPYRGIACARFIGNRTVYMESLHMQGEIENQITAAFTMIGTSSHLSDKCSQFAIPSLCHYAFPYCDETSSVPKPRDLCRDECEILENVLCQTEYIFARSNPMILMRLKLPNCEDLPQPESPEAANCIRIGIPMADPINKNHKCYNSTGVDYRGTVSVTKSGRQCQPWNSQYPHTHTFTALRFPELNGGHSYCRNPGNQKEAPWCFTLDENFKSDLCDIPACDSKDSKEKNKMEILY", "assay": "ELISA, soluble Fab on coated huROR1-ECD"}, "[2]": {"molecular_target": "T1, recombinant human ROR1 extracellular …", "assay": "ELISA, soluble Fab on coated huROR1-ECD", "remark": "listed apart in the source"}, "[3]": {"molecular_target": "T1, recombinant human ROR1 extracellular …", "assay": "ELISA, soluble Fab on coated huROR1-ECD", "procedure": "(§1) The previously described filter lift assay provides a visual, qualitative assessment of antigen binding (Example 1). In order to assess the ROR1 binding activity of Ab1 Fab in a more quantitative fashion, an ELISA assay was developed. A 96-well Costar-3366 plate was coated with 50 μL/well of 1 μg/mL human ROR1-ECD (ACROBiosystems, cat. #RO1-H522y) in PBS overnight at 4° C. The plate was rinsed once with PBS-T and blocked with 100 μL/well of 5% M-P for 1 h at 25° C. Fab samples were serially diluted 3-fold using 5% M-P and 50 μL/well was incubated for 1 h at 25° C. The plate was washed three times with PBS-T and 50 μL/well anti-human kappa, and HRP conjugate (Southern Biotech, cat. #2060-05) diluted 10,000-fold in 5% M-P was added for 1 h at 25° C. In certain assays (extended wash format), the plate was placed in large volumes (up to 1 L) of PBS-T and incubated, with mixing, for 2-5 h prior to the addition of anti-human kappa, HRP conjugate. The plate was washed three times with PBS-T, and developed with 50 μL/well 1-Step Ultra TMB-ELISA (Thermo Scientific, cat. #34028). The reaction was terminated by the addition of 2 N H2504 and the A450 was determined using a Spectramax plate reader.", "remark": "listed apart in the source"}, "[4]": {"molecular_target": "T2, human ROR1 on live cells (human, UniProt Q01973 30-937)", "T2 construct": "ROR1-transfected MEC cells (~56,000 copies/cell) or JeKo-1 cells (~13,000 copies/cell); the cell line is named under assay; also called ROR1-transfected MEC cells; JeKo-1 cells", "T2 sequence (Q01973 30-937 limits assumed)": "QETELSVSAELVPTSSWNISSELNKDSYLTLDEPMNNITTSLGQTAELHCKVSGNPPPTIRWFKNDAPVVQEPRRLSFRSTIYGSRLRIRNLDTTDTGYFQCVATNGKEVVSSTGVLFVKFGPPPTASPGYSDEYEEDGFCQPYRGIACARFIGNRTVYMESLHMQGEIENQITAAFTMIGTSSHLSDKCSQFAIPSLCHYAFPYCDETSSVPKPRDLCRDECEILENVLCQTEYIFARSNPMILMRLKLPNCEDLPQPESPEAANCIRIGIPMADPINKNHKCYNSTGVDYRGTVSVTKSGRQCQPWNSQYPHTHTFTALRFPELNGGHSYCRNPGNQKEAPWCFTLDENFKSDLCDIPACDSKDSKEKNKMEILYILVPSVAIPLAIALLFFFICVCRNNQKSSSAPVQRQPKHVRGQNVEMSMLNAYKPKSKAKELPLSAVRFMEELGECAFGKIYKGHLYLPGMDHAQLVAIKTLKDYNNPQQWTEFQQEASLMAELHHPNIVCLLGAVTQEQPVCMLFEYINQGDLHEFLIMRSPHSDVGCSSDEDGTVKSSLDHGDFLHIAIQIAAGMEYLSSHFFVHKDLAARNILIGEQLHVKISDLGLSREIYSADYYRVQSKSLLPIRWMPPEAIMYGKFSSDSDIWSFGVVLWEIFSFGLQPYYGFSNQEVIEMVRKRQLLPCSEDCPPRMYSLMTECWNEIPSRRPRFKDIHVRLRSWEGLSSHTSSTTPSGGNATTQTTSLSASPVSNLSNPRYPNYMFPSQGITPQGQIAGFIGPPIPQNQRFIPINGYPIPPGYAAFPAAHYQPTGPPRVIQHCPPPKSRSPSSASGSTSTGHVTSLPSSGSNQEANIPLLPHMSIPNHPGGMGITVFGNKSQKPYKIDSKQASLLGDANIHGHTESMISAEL", "assay": "flow cytometry on live JeKo-1 cells, Fab detected with anti-HA-PE", "procedure": "(§2) ROR1 binding was quantitated using flow cytometry and 2.5E5 ROR1-transfected MEC cells or JeKo-1 cells for each concentration of Fab variant. The cells were placed in 50 μL of PBS with 2% FBS. Next, the cells were diluted with an equal volume of 2× stock of the test Fab variant and the cells and antibody were co-incubated on ice for 20 min. The cells were then washed 3 times with 300 μL of FACS buffer and were resuspended in 100 μL of a 70-fold dilution of anti-HA.11-PE conjugate, clone 16B12 (BioLegend, cat. #901517) and incubated on ice with reduced light for 20 min. Subsequently, the cells were washed 3 times with 300 μL of FACS buffer and fixed with 2% paraformaldehyde for 10 min at 25° C. The cells then were washed 2 times with 300 μL of FACS buffer and analyzed on a Miltenyi MACSQuant Analyzer."}, "[5]": {"molecular_target": "T1, recombinant human ROR1 extracellular …", "assay": "ELISA, soluble Fab on coated huROR1-ECD; WT control beside variant G27N (…, SEQ ID NO: 15)", "procedure": "as §1"}, "[6]": {"molecular_target": "T1, recombinant human ROR1 extracellular …", "assay": "ELISA with prolonged wash, soluble Fab on coated huROR1-ECD", "procedure": "as §1\n(§3) Subsequently, the libraries were screened by capture lift to identify the strongest binding variants. The identity of the variants was determined by DNA sequencing and the relative affinities were characterized using an ELISA (described in Example 2) modified to enable further discrimination between the highest affinity variants. Specifically, following the initial incubation with soluble Fab, the plates were washed for a prolonged time (>1 h) in large volumes of PBS-T. The plates were then developed as described in Example 2."}, "[7]": {"molecular_target": "T1, recombinant human ROR1 extracellular …", "assay": "ELISA with prolonged wash, soluble Fab on coated huROR1-ECD", "procedure": "as §1, §3", "remark": "listed apart in the source"}, "[8]": {"molecular_target": "T1, recombinant human ROR1 extracellular …", "assay": "ELISA with prolonged wash, soluble Fab on coated huROR1-ECD", "procedure": "as §1, §3", "remark": "listed apart in the source"}, "[9]": {"molecular_target": "T2, human ROR1 on live cells", "assay": "flow cytometry on live ROR1-transfected MEC cells, Fab detected with anti-HA-PE", "procedure": "as §2\nInitially, three anti-ROR1 Fab variants, each differing from the parental antibody by a single amino acid, were characterized for binding to human ROR1 using live ROR1-transfected MEC cells. […] The binding profiles of the variants on live ROR1-transfected MEC cells were consistent with the binding profiles obtained using recombinant huROR1-ECD and an ELISA (see Example 3, FIG. 5)."}, "[10]": {"molecular_target": "T1, recombinant human ROR1 extracellular …", "assay": "ELISA with prolonged wash (>1 h in PBS-T): huROR1-ECD coated on the plate, soluble Fab titrated, anti-human kappa-HRP detection", "procedure": "as §1, with “The plate was washed three times with PBS-T, and developed with 50 μL/well 1-Step Ultra TMB-ELISA (Thermo Scientific, cat. #34028).” left out\nSubsequently, the libraries were screened by capture lift to identify the strongest binding variants. The identity of the variants was determined by DNA sequencing and the relative affinities were characterized using an ELISA (described in Example 2) modified to enable further discrimination between the highest affinity variants. […]"}, "[11]": {"molecular_target": "T2, human ROR1 on live cells", "assay": "flow cytometry on live JeKo-1 cells, scFv detected with anti-HA-PE; x axis is Log [relative scFv expression], no concentration unit"}, "[12]": {"molecular_target": "T1, recombinant human ROR1 extracellular …", "assay": "ELISA: huROR1-ECD coated on the plate, periplasmic scFv in serial dilution, anti-HA-HRP detection; x axis is Log [relative expression], no concentration unit", "procedure": "scFv constructs were expressed and isolated from the periplasmic space using the same protocol that was used for Fabs (Example 2). In order to quantitate the relative levels of scFv expression of the three variants, a 96-well Costar-3366 plate was coated with 50 μl/well of 2 μg/mL anti-FLAG-unlabeled (Rockland, cat. #600-401-383) in PBS overnight at 4° C. The plate was washed three times with PBS containing 0.05% Tween 20 (PBS-T) and blocked with 100 μL of 5% M-P. The plate was washed once, then 50 μl/well of sample dilutions was added. Sample dilutions were performed with 5% M-P. The plates were incubated 1 h at 25° C., washed three times with PBS-T, and incubated with 50 μl/well of anti-HA HRP conjugate (Roche, cat. #12013819001), diluted 1,000-fold in 5% M-P for 1 h at 25° C. The plate was washed three times with PBS-T, and developed with 50 μl/well 1-Step Ultra TMB-ELISA (Thermo Scientific, Prod. #34028, Lot #SF2405221). The reaction was terminated by the addition of 2 N H2504 and the A450 was determined using a Spectramax plate reader.\nNext, the binding of the isolated scFv variants to huROR1-ECD was assessed by ELISA as described in Example 2. A 96-well Costar-3366 plate was coated with 50 μl/well of 1 μg/mL human ROR-1 (AcroBiosystems, cat. #R01H522Y) in PBS overnight at 4° C. The plate was washed three times with PBS-T and blocked with 100 μL of 5% M-P. The plate was washed once, then 50 μl/well of 2-fold serial dilutions of sample was added. Sample dilutions were performed with 5% M-P. The plates were incubated 1 h at 25° C., washed three times with PBS-T, and incubated with 50 μl/well of anti-HA HRP conjugate (Roche, cat. #12013819001), diluted 1,000-fold in 5% M-P for 1 h at 25° C. […] The reaction was terminated by the addition of 2 N H₂SO₄ and the A450 was determined using a Spectramax plate reader. In order to compare the relative binding strength of the scFv variants, the expression levels as determined using the scFv ELISA described above were normalized to the Ab1 parental construct. […]"}},
  "note": "Where a chain is given by its changes, count along the chain named. Names and notes keep the numbering of the source. Values joined by “and” are separate entries in the source; they are usually repeats but may differ in a detail not shown here. Equal entries are not always repeated.",
  "data": [
    {"binder": "B1", "values": [
      {"measurement": "Kd", "setting": "[1]", "value": 3, "unit": "nM"},
      {"measurement": "Kd", "setting": "[2]", "value": "3.2 nM and 6 nM"},
      {"measurement": "Kd", "setting": "[3]", "value": 7, "unit": "nM"},
      {"measurement": "EC50 (read off the curve)", "setting": "[4]", "value": "~10", "unit": "nM"},
      {"measurement": "Kd", "setting": "[5]", "value": 3.2, "unit": "nM"}
    ]},
    {"binder": "B2", "values": [
      {"measurement": "fold reduction of binding against Ab1", "setting": "[1]", "value": "10 to 23", "unit": "fold"},
      {"measurement": "Kd", "setting": "[3]", "value": 68, "unit": "nM"}
    ]},
    {"binder": "B3", "values": [
      {"measurement": "Kd", "setting": "[3]", "value": 110, "unit": "nM"}
    ]},
    {"binder": "B4", "values": [
      {"measurement": "fold increase of binding against Ab1", "setting": "[1]", "value": "~4", "unit": "fold"},
      {"measurement": "Kd", "setting": "[2]", "value": 1.5, "unit": "nM"},
      {"measurement": "Kd", "setting": "[6]", "value": "3 nM and 2.7 nM"},
      {"measurement": "Kd", "setting": "[7]", "value": 3, "unit": "nM"},
      {"measurement": "Kd", "setting": "[8]", "value": "3.6 nM and 1.6 nM and 2.7 nM"},
      {"measurement": "EC50 (read off the curve)", "setting": "[4]", "value": "~2", "unit": "nM"},
      {"measurement": "EC50 (read off the curve)", "setting": "[9]", "value": "~0.05", "unit": "µg/mL"},
      {"measurement": "EC50 (read off the curve)", "setting": "[10]", "value": "~3", "unit": "nM"}
    ]},
    {"binder": "B5", "values": [
      {"measurement": "fold reduction of binding against Ab1", "setting": "[1]", "value": "10 to 23", "unit": "fold"},
      {"measurement": "Kd", "setting": "[3]", "value": 160, "unit": "nM"}
    ]},
    {"binder": "B6", "values": [
      {"measurement": "binding result", "setting": "[11]", "value": "binds"},
      {"measurement": "binding result", "setting": "[12]", "value": "binds"}
    ]},
    {"binder": "B7", "values": [
      {"measurement": "binding result", "setting": "[11]", "value": "binds"},
      {"measurement": "binding result", "setting": "[12]", "value": "binds"}
    ]},
    {"binder": "B8", "values": [
      {"measurement": "binding result", "setting": "[11]", "value": "binds"},
      {"measurement": "binding result", "setting": "[12]", "value": "binds"}
    ]}
  ]
}
